From publication PMC11946911 come the findings set out here.

The target in assay [1] is EcZorB (ZorB of the Escherichia coli NCTC 9026 type I Zorya system, EcZorI) (Escherichia coli NCTC 9026). Description: cryo-EM structure.
Assay [2] concerns the target EcZorA (ZorA of the Escherichia coli NCTC 9026 type I Zorya system, EcZorI) (Escherichia coli NCTC 9026). Nature of the assay: cryo-EM structure.

For orientation: stoichiometry N means the number of molecules, sites or subunits per partner or assembly. For the substance “EcZorB (ZorB of the Escherichia coli NCTC 9026 type I Zorya system, EcZorI) (natural protein)”, the stoichiometry N in assay [1] is 2.

Regarding “EcZorA (ZorA of the Escherichia coli NCTC 9026 type I Zorya system, EcZorI) (natural protein)”, the stoichiometry N in assay [2] was determined as 5.
